Key:
[1] = biological target: T1, purified yeast recombinant GIP90 with FLAG tag at N-terminal position and 6 histidine tail at C-terminal position
T1 chain: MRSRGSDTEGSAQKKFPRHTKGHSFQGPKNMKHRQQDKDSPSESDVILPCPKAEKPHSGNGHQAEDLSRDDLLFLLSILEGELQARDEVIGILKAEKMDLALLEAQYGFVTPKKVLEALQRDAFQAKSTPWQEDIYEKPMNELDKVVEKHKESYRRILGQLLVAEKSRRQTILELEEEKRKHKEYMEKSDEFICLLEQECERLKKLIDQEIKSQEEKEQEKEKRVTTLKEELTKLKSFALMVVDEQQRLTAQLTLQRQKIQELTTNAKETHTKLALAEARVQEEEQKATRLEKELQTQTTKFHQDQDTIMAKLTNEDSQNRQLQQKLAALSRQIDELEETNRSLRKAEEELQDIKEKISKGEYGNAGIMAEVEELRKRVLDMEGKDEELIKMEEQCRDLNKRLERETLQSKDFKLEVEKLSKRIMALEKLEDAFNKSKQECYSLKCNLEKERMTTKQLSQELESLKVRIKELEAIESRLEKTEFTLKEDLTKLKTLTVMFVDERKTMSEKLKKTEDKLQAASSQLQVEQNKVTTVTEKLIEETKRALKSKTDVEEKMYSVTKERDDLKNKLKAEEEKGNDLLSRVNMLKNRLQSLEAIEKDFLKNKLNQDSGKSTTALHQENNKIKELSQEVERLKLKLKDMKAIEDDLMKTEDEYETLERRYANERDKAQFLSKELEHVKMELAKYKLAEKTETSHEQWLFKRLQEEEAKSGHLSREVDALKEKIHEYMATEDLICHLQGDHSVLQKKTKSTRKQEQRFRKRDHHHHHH

[2] = biological target: T2, GIP130b with deletion of the N terminal 240-residues (human, UniProt Q4L180 241-1128); test: yeast two-hybrid
T2 sequence: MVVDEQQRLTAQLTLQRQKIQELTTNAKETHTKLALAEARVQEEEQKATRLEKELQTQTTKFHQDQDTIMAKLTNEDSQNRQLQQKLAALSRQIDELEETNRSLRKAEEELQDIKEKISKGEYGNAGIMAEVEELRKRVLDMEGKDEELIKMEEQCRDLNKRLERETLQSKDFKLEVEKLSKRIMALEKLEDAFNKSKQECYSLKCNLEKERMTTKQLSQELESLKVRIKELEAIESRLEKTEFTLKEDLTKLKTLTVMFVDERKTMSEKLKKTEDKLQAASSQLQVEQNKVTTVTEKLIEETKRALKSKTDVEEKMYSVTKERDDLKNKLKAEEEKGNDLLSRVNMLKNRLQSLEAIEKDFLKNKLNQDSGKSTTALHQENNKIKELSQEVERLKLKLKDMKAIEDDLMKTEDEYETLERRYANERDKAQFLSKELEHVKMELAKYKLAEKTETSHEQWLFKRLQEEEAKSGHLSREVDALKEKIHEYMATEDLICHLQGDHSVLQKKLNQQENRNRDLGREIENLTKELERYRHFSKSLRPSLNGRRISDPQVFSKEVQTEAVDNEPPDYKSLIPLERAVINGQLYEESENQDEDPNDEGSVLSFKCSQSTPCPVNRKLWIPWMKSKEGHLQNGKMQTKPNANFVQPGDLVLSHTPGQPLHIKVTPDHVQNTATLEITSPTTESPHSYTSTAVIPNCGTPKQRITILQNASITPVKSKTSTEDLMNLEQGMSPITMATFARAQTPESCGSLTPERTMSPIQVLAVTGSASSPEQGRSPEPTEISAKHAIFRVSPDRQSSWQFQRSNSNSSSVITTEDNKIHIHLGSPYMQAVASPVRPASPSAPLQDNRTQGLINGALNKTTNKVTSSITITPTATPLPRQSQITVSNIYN

[3] = biological target: T3, GIP90 (GPBP interacting protein 90 kDa) (human, UniProt Q4L180 1-749, limits assumed); test: yeast two-hybrid, β-galactosidase colony lift
T3 construct: Full length; tested as GAL4 domain fusion in yeast two-hybrid/three-hybrid; fusion parts are not written as pieces
T3 sequence: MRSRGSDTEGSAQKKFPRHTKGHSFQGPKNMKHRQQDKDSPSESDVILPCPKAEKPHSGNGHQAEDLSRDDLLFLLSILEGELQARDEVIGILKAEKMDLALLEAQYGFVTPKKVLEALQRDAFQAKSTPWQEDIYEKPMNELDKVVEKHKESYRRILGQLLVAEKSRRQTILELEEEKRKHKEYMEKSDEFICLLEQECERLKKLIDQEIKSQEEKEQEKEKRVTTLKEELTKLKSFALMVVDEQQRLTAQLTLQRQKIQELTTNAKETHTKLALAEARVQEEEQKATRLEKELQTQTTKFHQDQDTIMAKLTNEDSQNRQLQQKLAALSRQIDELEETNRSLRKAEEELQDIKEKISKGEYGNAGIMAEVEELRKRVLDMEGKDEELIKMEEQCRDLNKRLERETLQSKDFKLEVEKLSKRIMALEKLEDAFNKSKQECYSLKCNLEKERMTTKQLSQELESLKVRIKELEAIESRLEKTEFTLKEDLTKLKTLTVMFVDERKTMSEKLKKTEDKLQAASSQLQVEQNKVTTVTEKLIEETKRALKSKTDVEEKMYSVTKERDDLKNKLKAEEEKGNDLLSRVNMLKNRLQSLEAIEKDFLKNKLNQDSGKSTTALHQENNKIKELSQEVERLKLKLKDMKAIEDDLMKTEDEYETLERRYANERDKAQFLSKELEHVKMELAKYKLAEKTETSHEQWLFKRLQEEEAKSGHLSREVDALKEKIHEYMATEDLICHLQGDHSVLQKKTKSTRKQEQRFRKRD
Experimental: Deletion mutants were obtained using specific primers and PCR, followed by cloning of the resulting cDNAs in the pGBT9 and pGAD424 vectors. The assays were performed in SFY526 or HF7c Saccharomyces cerevisiae strains, with pGBT9 as GAL4 binding domain vector and pGAD424 as GAL4 activation domain vector, by the lift colony assay procedure. Briefly, the yeast cells were co-transformed with constructs of both binding domain and activation domain vectors, and the co-transformants were selected in medium deficient in both tryptophan and leucine. After five days of incubation at 30° C. the colonies were tested for the expression of β-galactosidase with X-Gal substrate (0.75 mg/ml). […] When the assays were performed with the HF7c strain, the interactions were assessed by the lift colony assay procedure and by growth in medium deficient in histidine, tryptophan and leucine. For yeast three-hybrid system, we used the pBRIDGE vector, which allows the conditional expression of a third protein apart from the usual GAL4 binding and activation domain-fusion proteins of the two-hybrid system. In this case, the expression of GPBP or I-20 or GIP90 was driven by Met25 promoter, active in absence of methionine. In these experiments, the transformed SFY526 cells were plated in medium deficient in tryptophan, leucine and methionine, and subjected to the colony lift assay after five days at 30° C. […]

- binding result [2]: no binding
- binding result [3]: binds
B1: Goodpasture antigen binding protein (GPBP) (enzyme, UniProt Q9Y5P4 1-624, looked up)
chain: MSDNQSWNSSGSEEDPETESGPPVERCGVLSKWTNYIHGWQDRWVVLKNNALSYYKSEDETEYGCRGSICLSKAVITPHDFDECRFDISVNDSVWYLRAQDPDHRQQWIDAIEQHKTESGYGSESSLRRHGSMVSLVSGASGYSATSTSSFKKGHSLREKLAEMETFRDILCRQVDTLQKYFDACADAVSKDELQRDKVVEDDEDDFPTTRSDGDFLHSTNGNKEKLFPHVTPKGINGIDFKGEAITFKATTAGILATLSHCIELMVKREDSWQKRLDKETEKKRRTEEAYKNAMTELKKKSHFGGPDYEEGPNSLINEEEFFDAVEAALDRQDKIEEQSQSEKVRLHWPTSLPSGDAFSSVGTHRFVQKPYSRSSSMSSIDLVSASDDVHRFSSQVEEMVQNHMTYSLQDVGGDANWQLVVEEGEMKVYRREVEENGIVLDPLKATHAVKGVTGHEVCNYFWNVDVRNDWETTIENFHVVETLADNAIIIYQTHKRVWPASQRDVLYLSVIRKIPALTENDPETWIVCNFSVDHDSAPLNNRCVRAKINVAMICQTLVSPPEGNQEISRDNILCKITYVANVNPGGWAPASVLRAVAKREYPKFLKRFTSYVQEKTAGKPILF
notes: Protein kinase; Fusion parts are not written as pieces
- ^32P incorporation into GIP90 (in vitro phosphorylation with [γ^32P] ATP, Western blot and autoradiography) [1]: resulted in ^32P incorporation into GIP90
